Data from patent publication US10745460B2, “Peptides and combination of peptides for use in immunotherapy against various tumors” (Immatics Biotechnologies GmbH, priority 2015, dated 2020).

What follows are substances tested against HLA-A*02:01 (Homo sapiens, UniProt P04439, D140Y/D185E/D98H/E176V/E277Q/G131W/G231S/I119V/I121R/I166T/I218V/L300P/L318F/N151K/N90K/P208A/P217A/Q86G/Q94H/R138H/R169H/T345S) (assay: MHC binding assay: UV-ligand exchange with β2m ELISA (peptide exchange yield)). Settings: binding to HLA-A*02:01 evaluated by peptide exchange yield (UV-ligand exchange, β2m ELISA).
Description: Candidate peptides for T cell based therapies according to the present invention were further tested for their MHC binding capacity (affinity). The individual peptide-MHC complexes were produced by UV-ligand exchange, where a UV-sensitive peptide is cleaved upon UV-irradiation, and exchanged with the peptide of interest as analyzed. Only peptide candidates that can effectively bind and stabilize the peptide-receptive MHC molecules prevent dissociation of the MHC complexes. To determine the yield of the exchange reaction, an ELISA was performed based on the detection of the light chain (β2m) of stabilized MHC complexes. The assay was performed as generally described in Rodenko et al. (Rodenko et al., 2006).
96 well MAXISorp plates (NUNC) were coated over night with 2 ug/ml streptavidin in PBS at room temperature, washed 4× and blocked for 1 h at 37° C. in 2% BSA containing blocking buffer. Refolded HLA-A*02:01/MLA-001 monomers served as standards, covering the range of 15-500 ng/ml. Peptide-MHC monomers of the UV-exchange reaction were diluted 100 fold in blocking buffer. Samples were incubated for 1 h at 37° C., washed four times, incubated with 2 ug/ml HRP conjugated anti-β2m for 1 h at 37° C., washed again and detected with TMB solution that is stopped with […]. Absorption was measured at 450 nm. Candidate peptides that show a high exchange yield (preferably higher than 50%, most preferred higher than 75%) are generally preferred for a generation and production of antibodies or fragments thereof, and/or T cell receptors or fragments thereof, as they show sufficient avidity to the MHC molecules and prevent dissociation of the MHC complexes.
In the case of “1 (KLQEKIQEL; listed as Homo sapiens) [compound 1]”, the Peptide exchange is reported as “++++ (≥75% = ++++)”. “3 (RVIDDSLVVGV; listed as Homo sapiens) [compound 3]” was tested, and the Peptide exchange was “+++ (≥50 = +++)”. With “4 (VLFGELPAL; listed as Homo sapiens) [compound 4]” the Peptide exchange was “+++ (≥50 = +++)”. With “5 (GLVDIMVHL; listed as Homo sapiens) [compound 5]” the Peptide exchange was “+++ (≥50 = +++)”. For “6 (FLNAIETAL; listed as Homo sapiens) [compound 6]”, the Peptide exchange was “++++ (≥75% = ++++)”. “7 (ALLQALMEL; listed as Homo sapiens) [compound 7]” was tested, and the Peptide exchange was “+++ (≥50 = +++)”. For “9 (SLITGQDLLSV; listed as Homo sapiens) [compound 9]”, the Peptide exchange was “+++ (≥50 = +++)”. In the case of “10 (QLIEKNWLL; listed as Homo sapiens) [compound 10]”, the Peptide exchange is reported as “+++ (≥50 = +++)”. In the case of “11 (LLDPKTIFL; listed as Homo sapiens) [compound 11]”, the Peptide exchange is reported as “+++ (≥50 = +++)”. “12 (RLLDPKTIFL; listed as Homo sapiens) [compound 12]” was tested, and the Peptide exchange was “+++ (≥50 = +++)”. For “13 (RLHDENILL; listed as Homo sapiens) [compound 13]”, the Peptide exchange was “+++ (≥50 = +++)”. In the case of “14 (YTFSGDVQL; listed as Homo sapiens) [compound 14]”, the Peptide exchange is reported as “+++ (≥50 = +++)”. In the case of “16 (SLADLSLLL; listed as Homo sapiens) [compound 16]”, the Peptide exchange is reported as “+++ (≥50 = +++)”. With “17 (GLLPSAESIKL; listed as Homo sapiens) [compound 17]” the Peptide exchange was “++++ (≥75% = ++++)”. In the case of “18 (KTASINQNV; listed as Homo sapiens) [compound 18]”, the Peptide exchange is reported as “++ (≥20% = ++)”. For “19 (KVFELDLVTL; listed as Homo sapiens) [compound 19]”, the Peptide exchange was “++ (≥20% = ++)”. In the case of “20 (ALVEKGEFAL; listed as Homo sapiens) [compound 20]”, the Peptide exchange is reported as “++ (≥20% = ++)”. “21 (YLMDDFSSL; listed as Homo sapiens) [compound 21]” was tested, and the Peptide exchange was “+++ (≥50 = +++)”. “22 (LMYPYIYHV; listed as Homo sapiens) [compound 22]” was tested, and the Peptide exchange was “+++ (≥50 = +++)”. “23 (ALLSPLSLA; listed as Homo sapiens) [compound 23]” was tested, and the Peptide exchange was “+++ (≥50 = +++)”. “24 (KVWSDVTPL; listed as Homo sapiens) [compound 24]” was tested, and the Peptide exchange was “+++ (≥50 = +++)”. In the case of “25 (LLWGHPRVALA; listed as Homo sapiens) [compound 25]”, the Peptide exchange is reported as “+++ (≥50 = +++)”. With “26 (VLDGKVAVV; listed as Homo sapiens) [compound 26]” the Peptide exchange was “+++ (≥50 = +++)”. With “27 (GLLGKVTSV; listed as Homo sapiens) [compound 27]” the Peptide exchange was “+++ (≥50 = +++)”. For “28 (IKVTDPQLLEL; listed as Homo sapiens) [compound 28]”, the Peptide exchange was “++ (≥20% = ++)”. “29 (KMISAIPTL; listed as Homo sapiens) [compound 29]” was tested, and the Peptide exchange was “++ (≥20% = ++)”. “30 (IITEVITRL; listed as Homo sapiens) [compound 30]” was tested, and the Peptide exchange was “+++ (≥50 = +++)”. With “31 (GLLETTGLLAT; listed as Homo sapiens) [compound 31]” the Peptide exchange was “+++ (≥50 = +++)”. “33 (TLDRNSLYV; listed as Homo sapiens) [compound 33]” was tested, and the Peptide exchange was “++ (≥20% = ++)”. “34 (TLNTLDINL; listed as Homo sapiens) [compound 34]” was tested, and the Peptide exchange was “+++ (≥50 = +++)”. “35 (VIIKGLEEI; listed as Homo sapiens) [compound 35]” was tested, and the Peptide exchange was “++ (≥20% = ++)”. In the case of “36 (TVLQELINV; listed as Homo sapiens) [compound 36]”, the Peptide exchange is reported as “+++ (≥50 = +++)”. With “37 (QIVELIEKI; listed as Homo sapiens) [compound 37]” the Peptide exchange was “++ (≥20% = ++)”. “38 (VLQQESNFL; listed as Homo sapiens) [compound 38]” was tested, and the Peptide exchange was “++ (≥20% = ++)”. With “39 (YLEDGFAYV; listed as Homo sapiens) [compound 39]” the Peptide exchange was “+++ (≥50 = +++)”. “40 (KIWEELSVLEV; listed as Homo sapiens) [compound 40]” was tested, and the Peptide exchange was “+++ (≥50 = +++)”. For “41 (IVTEIISEI; listed as Homo sapiens) [compound 41]”, the Peptide exchange was “+++ (≥50 = +++)”. For “42 (KQMSISTGL; listed as Homo sapiens) [compound 42]”, the Peptide exchange was “++ (≥20% = ++)”. With “44 (AVFNLVHVV; listed as Homo sapiens) [compound 44]” the Peptide exchange was “+++ (≥50 = +++)”. “45 (FLPVSVVYV; listed as Homo sapiens) [compound 45]” was tested, and the Peptide exchange was “+++ (≥50 = +++)”. With “47 (GLNGFNVLL; listed as Homo sapiens) [compound 47]” the Peptide exchange was “+++ (≥50 = +++)”. For “48 (KISDFGLATV; listed as Homo sapiens) [compound 48]”, the Peptide exchange was “+++ (≥50 = +++)”. For “49 (KLIGNIHGNEV; listed as Homo sapiens) [compound 49]”, the Peptide exchange was “++ (≥20% = ++)”. “50 (ILLSVLHQL; listed as Homo sapiens) [compound 50]” was tested, and the Peptide exchange was “+++ (≥50 = +++)”. “51 (LDSEALLTL; listed as Homo sapiens) [compound 51]” was tested, and the Peptide exchange was “++ (≥20% = ++)”. “52 (TIGIPFPNV; listed as Homo sapiens) [compound 52]” was tested, and the Peptide exchange was “++ (≥20% = ++)”. “53 (AQHLSTLLL; listed as Homo sapiens) [compound 53]” was tested, and the Peptide exchange was “+ (≥10% = +)”. With “54 (YLVPGLVAA; listed as Homo sapiens) [compound 54]” the Peptide exchange was “+++ (≥50 = +++)”. In the case of “55 (HLFDKIIKI; listed as Homo sapiens) [compound 55]”, the Peptide exchange is reported as “+++ (≥50 = +++)”. In the case of “57 (TLYPGRFDYV; listed as Homo sapiens) [compound 57]”, the Peptide exchange is reported as “++ (≥20% = ++)”. In the case of “58 (HLLGEGAFAQV; listed as Homo sapiens) [compound 58]”, the Peptide exchange is reported as “+++ (≥50 = +++)”. “59 (ALADGIKSFLL; listed as Homo sapiens) [compound 59]” was tested, and the Peptide exchange was “+++ (≥50 = +++)”. In the case of “60 (YLFSQGLQGL; listed as Homo sapiens) [compound 60]”, the Peptide exchange is reported as “+++ (≥50 = +++)”. With “61 (ALYPKEITL; listed as Homo sapiens) [compound 61]” the Peptide exchange was “+++ (≥50 = +++)”. In the case of “62 (SLVENIHVL; listed as Homo sapiens) [compound 62]”, the Peptide exchange is reported as “+++ (≥50 = +++)”. For “63 (KLLPMVIQL; listed as Homo sapiens) [compound 63]”, the Peptide exchange was “+++ (≥50 = +++)”. In the case of “64 (SLYAGSNNQV; listed as Homo sapiens) [compound 64]”, the Peptide exchange is reported as “++ (≥20% = ++)”. With “65 (SLSEKSPEV; listed as Homo sapiens) [compound 65]” the Peptide exchange was “++ (≥20% = ++)”. “66 (AMFPDTIPRV; listed as Homo sapiens) [compound 66]” was tested, and the Peptide exchange was “++ (≥20% = ++)”. “67 (FLIENLLAA; listed as Homo sapiens) [compound 67]” was tested, and the Peptide exchange was “+++ (≥50 = +++)”. With “68 (QLMNLIRSV; listed as Homo sapiens) [compound 68]” the Peptide exchange was “+++ (≥50 = +++)”. In the case of “69 (LKVLKADVVL; listed as Homo sapiens) [compound 69]”, the Peptide exchange is reported as “++ (≥20% = ++)”. “70 (GLTEKTVLV; listed as Homo sapiens) [compound 70]” was tested, and the Peptide exchange was “++ (≥20% = ++)”. In the case of “71 (HMSGKLTNV; listed as Homo sapiens) [compound 71]”, the Peptide exchange is reported as “++ (≥20% = ++)”. With “72 (VLSTRVTNV; listed as Homo sapiens) [compound 72]” the Peptide exchange was “++ (≥20% = ++)”. In the case of “74 (GLAFLPASV; listed as Homo sapiens) [compound 74]”, the Peptide exchange is reported as “++ (≥20% = ++)”. For “75 (ALLDGALQL; listed as Homo sapiens) [compound 75]”, the Peptide exchange was “+++ (≥50 = +++)”. In the case of “76 (FTAEFLEKV; listed as Homo sapiens) [compound 76]”, the Peptide exchange is reported as “+++ (≥50 = +++)”. For “77 (ALYGNVQQV; listed as Homo sapiens) [compound 77]”, the Peptide exchange was “+++ (≥50 = +++)”. With “79 (TVLEEIGNRV; listed as Homo sapiens) [compound 79]” the Peptide exchange was “++ (≥20% = ++)”. “80 (VLTGQVHEL; listed as Homo sapiens) [compound 80]” was tested, and the Peptide exchange was “+++ (≥50 = +++)”. With “81 (ILAEEPIYI; listed as Homo sapiens) [compound 81]” the Peptide exchange was “++ (≥20% = ++)”. With “82 (ILAEEPIYIRV; listed as Homo sapiens) [compound 82]” the Peptide exchange was “+++ (≥50 = +++)”. In the case of “83 (GLLENSPHL; listed as Homo sapiens) [compound 83]”, the Peptide exchange is reported as “++ (≥20% = ++)”.
